Experimental findings from patent publication US20260028412A1 (PRECISION BIOSCIENCES, published 2026) are described below.

Assay [1] deals with His-tagged BCMA protein (Homo sapiens (Human)) (UniProt Q02223). Briefly: biolayer interferometry (Octet RED96), His-tagged BCMA loaded on Anti-Penta-HIS (HIS1K) sensors, antibody as analyte at 138.9 nM. Background: BLI is a label-free optical method that tracks binding on a fibre tip over time.
In assay [2] the target is human BCMA expressed on the cell surface (human) (UniProt Q02223). Briefly: flow cytometry on K562-BCMA cells, goat anti-human IgG secondary. Background: A flow cytometer gives signals particle by particle.
The target in assay [3] is His-tagged BCMA protein (Homo sapiens (Human)) (UniProt Q02223). Briefly: Octet RED96, His-tagged BCMA on anti-His biosensor tips, antibody as analyte.
Assay [4] deals with human BCMA expressed on the cell surface (human) (UniProt Q02223). Briefly: flow cytometry on K562-BCMA cells, secondary antibody only.
The target of assay [5] is T1, His-tagged BCMA protein (Homo sapiens (Human), UniProt Q02223 1-54).
T1 construct: not shown: His tag
T1 sequence: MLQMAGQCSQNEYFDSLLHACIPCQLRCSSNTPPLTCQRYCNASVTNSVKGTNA
Briefly: Octet RED96, His-tagged BCMA on anti-His biosensor tips, antibody as analyte. The protocol: (§1) Four full length antibodies were analyzed using the OctetRED96 technology for assessment of binding affinity by measurement of the equilibrium dissociation constant (KD). Within the group of four were the two candidate anti-BCMA antibodies (BCMA-3L/3H and BCMA-3L/20H), the positive anti-BCMA control described in Example 1, and the anti-CD19 negative control described in Example 1. In the experiment, His-tagged BCMA protein was loaded onto anti-His antibody coated biosensor tips and supplied antibodies were utilized as analytes to measure KD.

Assay [6] concerns the target T1, His-tagged BCMA protein. Briefly: biolayer interferometry (Octet RED96), His-tagged BCMA loaded on Anti-Penta-HIS (HIS1K) sensors, antibody as analyte at 138.9 nM. The protocol:
as §1

A word on the koff: it is the rate constant with which the complex falls apart. High values mean a short-lived complex, low ones a long-lived complex. In general, kon refers to a measure of how fast the partners come together. The term Kd denotes the equilibrium constant for the complex coming apart.

In assay [1], “positive control IgG4 anti-BCMA antibody (comprising the VH and VL regions of the C11D5.3 antibody described in WO 2010/104949)” gave a Response of 2.31, a koff of less than 1e-07 s⁻¹ and an on-rate constant (kon) of 236000 M⁻¹ s⁻¹. This molecule also yielded a % positive cells in assay [2] of 10.1%. The molecule further showed a Kd in assay [3] of less than 0.001 nM.
In assay [4], goat anti-human IgG secondary antibody came in with a % positive cells of 0.18%.
As for “full-length human IgG4 antibody expressing the anti-CD19 targeting moiety FMC63”, in assay [1], the Response was determined as 0.0032. The molecule further gave a % positive cells in assay [2] of 1.2%.

B1: BCMA-3L/3H full-length IgG4 antibody (antibody, V domains shown)
VH: QIQLVQSGPELKKPGETVKISCKASGYTFTHYSINWVKRAPGKGLKWMGWINTESGEPTYAYDFKGRFAFSLETSASTAYLQINNLKYEDTATYFCALDYESAMDYWGQGTSVTVSS
VL: DIVLTQSPPSLAMSLGKRATISCRASESVTIPGQHLINWYQQKPGQPPKLLIQRASNVESGVPARFSGSGSRTDFTLTIDPVEEDDVAVYYCLQTRGIPRTFGGGTKLEIKR
notes: also called BCMA-3L/3H full length antibody
With B1, the Kd in assay [5] amounted to 1.38 nM. Besides, in assay [6], the koff came to 0.000333 s⁻¹ and the kon is 242000 M⁻¹ s⁻¹.

B2: BCMA-3L/20H full-length IgG4 antibody (antibody, V domains shown)
VH: QIQLVQSGPELKKPGETVKISCKASGYTFTHYSINWVKRAPGKGLKWMGWINTETRESTYAYDFKGRFAFSLETSASTAYLQINNLKYEDTATYFCALDYKQAMDYWGQGTSVTVSS
VL: DIVLTQSPPSLAMSLGKRATISCRASESVTIPGQHLINWYQQKPGQPPKLLIQRASNVESGVPARFSGSGSRTDFTLTIDPVEEDDVAVYYCLQTRGIPRTFGGGTKLEIKR
notes: also called BCMA-3L/20H full length antibody; BCMA-3L/20H antibody clone
In turn, B2 showed an equilibrium dissociation constant (Kd) in assay [5] of 2.14 nM. In assay [6], this molecule returned a koff of 0.000458 s⁻¹ and a kon of 214000 M⁻¹ s⁻¹.
